From patent US20260217797A1

Experiments:
[1] = biological target: SARS-CoV-2 B.1.617.1 (Kappa) RBD (SARS-CoV-2) (UniProt P0DTC2); test: Octet BLI single point, monovalent
[2] = biological target: SARS-CoV-2 B.1.617.2 (Delta) RBD (SARS-CoV-2) (UniProt P0DTC2); test: Octet BLI single point, monovalent
[3] = biological target: SARS-CoV-2 Beta (B.1.351) spike protein (on reporter virus particles) (SARS-CoV-2) (UniProt P0DTC2); test: cell-based or functional assay
[4] = biological target: SARS-CoV-2 Alpha (B.1.1.7) spike protein (on reporter virus particles) (SARS-CoV-2) (UniProt P0DTC2); test: cell-based or functional assay
[5] = biological target: SARS-CoV-2 Epsilon (B.1.427/429) spike protein (on reporter virus particles) (SARS-CoV-2) (UniProt P0DTC2); test: cell-based or functional assay
[6] = biological target: SARS-CoV-2 Gamma (P.1) spike protein (on reporter virus particles) (SARS-CoV-2) (UniProt P0DTC2); test: cell-based or functional assay
[7] = biological target: SARS-CoV-2 P.1 Spike (Gamma) (SARS-CoV-2) (UniProt P0DTC2); test: Octet BLI single point, monovalent
[8] = biological target: SARS-CoV-2 B.1.351 (Beta) RBD (SARS-CoV-2) (UniProt P0DTC2); test: Octet BLI single point, monovalent

Substance	Kd [1]	Kd [2]	PsV neutralization IC50 [3]	PsV neutralization IC90 [3]	PsV neutralization IC50 [4]	PsV neutralization IC90 [4]	PsV neutralization IC50 [5]	PsV neutralization IC90 [5]	PsV neutralization IC50 [6]	PsV neutralization IC90 [6]	Kd [7]	Kd [8]
RGN10933 (antibody)	12 nM	2.7 nM	0.897 µg/mL	8.28 µg/mL	0.0064 µg/mL	0.081 µg/mL	0.0074 µg/mL	0.058 µg/mL	3.89 µg/mL	16.2 µg/mL		
RGN10987 (antibody)	3.05 nM	9.65 nM									12.5 nM	15 nM
